Measured values published in the nanobody polyreactivity screen of Harvey et al. (2022).

Test: yeast display, Sf9 membrane polyspecificity reagent, FACS + sequencing; frameworks hold sequencing errors
In short: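 A synthetic nanobody library was expressed on Saccharomyces cerevisiae BJ5465 by galactose induction for 36–48 hours. The library was stained for 1 hour at 4 °C with 10% biotinylated, detergent-solubilized Sf9 membrane reagent and enriched with streptavidin microbeads before FACS. Low and high (top ~1%) gates were set on anti-HA fluorescence for expression and streptavidin fluorescence for reagent binding, and each polyreactivity label reflects the gate of origin.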

Sequence | polyreactivity (PSR sort gate)
QVQLVESGGGLVQAGGSLGLSCAASGSIFLRYTLGWYRQAPGKERELVAAISWSGGSTYYADSVKGRFTMSRDNAKNNVYLQMNSLKREDTAVYYCNAVYASWSYPGYDYWGQGTQVTVSS | high polyreactivity
QVQLVESGGGLVQAGGSLRLTCAASGFIFRSYAMGWYRQAPGKERELVAAINSRAGNTYYADSVKGRFTISRDNAKNTVYLQMNSLKPEDTAVYYCAVRSYSPRSRGMGYWGQGTQVTVSS | high polyreactivity
QVQLVESGGGLVQAGGSLRLSCAASGSIFRVYAMGWYRQAPGKEREFVAAISYSTGSTYADSVKGRFTISRDNAKNTVYLQMNSLKPEDTAVYYCNARFRYGSRDEYDYWGQGTQVTVSS | low polyreactivity
QVQQQESGGGLVQASGSLRLSCAASGNIFPDYVMGWYRQGPGQEREFVANITGGSTTNYADSVKGRFSISRDNAKNTVYLQMNCLKQEDTAVYYCAVNFGTVVLYLYWGQGTQVTVSS | high polyreactivity
QVQLVESGGGLVQAGGSLRLSCAASGITLTRYAMGWYRQAPGKERELVAAITWSGGSTYYADSVKGRFTISRDNAKNTVYLQMNSLKPEDTAVYYCAAEYYEWVFWGYDYWGQGTQVTVSS | high polyreactivity
QVQLVESGVGLVQAGRSLRLSCAATGIIFRDNARGSNRQAPGKERELVAANSKSGGRTYYADSVKGRFTISRDNAKNTVYLQMNSLKPDDTAVYYCAKASRYWSLYYWGQGTQVTVSS | high polyreactivity
QVHLVESGGGLVQAGGSLRLSCAASGSIFRGYAMGWSRQAPGKERELVAAITSGGSTNYADSVNGRFTISRDNANNTVYLQMNSLKPEDTAVYYCNTVRWGRRTTFYYWGQGTQVTVSS | low polyreactivity
QVQLQGSGGGLVQAGVSLRLSCAASGYIFQNVPMGWNRHAPGKERELVAGIDNATSTNYADSVNGRFTISLDNAKNTVYLQMNSLKPEDTAVYYCAAAGQADNTLGYWGQGTQVTVSS | low polyreactivity
QVQLVESGGGLVHAGGSLRLSCAASGFTFPNYAMGWYRQAPGKERSLVAAITSGGGRTNYADSVKGRFTISRDNAKNTVYLQMISLKPEDTAVYYCAKTRVRGSEFGYWGQGTQVTVSS | low polyreactivity
QVQLVESGGGLVQAGGSLRLSCAASGSNFYNNVMGWYRQAPGKERELVAAINSGGRTYYADSVKGRFTISRDNAKNTVYLQMNSLKPEDTAVYYCAVGYGRAARMDYWGQGTQVTVSS | high polyreactivity
QVQLVESGGGLVQAGGSLRLSCAASGSIFRYYAMGWYRQAPGKERELVAAISSSGGSTYYADSVKGRFTISRDNAKNTVYLQMNSLKPEDTAVYYCARDWPSYYARQYDYWGQGTQVTVSS | high polyreactivity
QVQLVESGGGLVQAGGSLRLSCDASGRTFFYNAMGLYRQAPGKERELVAAISKNGGNTYYADSVKGRFTISRDNAKNTVYLQMNSLKPEDTAVYYCAARQSRTGPDRNDYWGQGTQVTVSS | high polyreactivity
QVQLVQSGGGIVQAGGSLRISCAASGFIFSSYDMGWYRQAPGKESELVAAISWTGGSTYYADSVKARFTISRDNAKNTVYLQMTSLKPEETAVYYCNAYPYFLVRIMDSWGQGTEVTVSS | high polyreactivity
QVQLVESGGGLVQAGGSLRLSCAGSGFISYYYAMGWYRQAPGKEREFVAAITSSGGSTRYADSVKGRFTISRDNAKNTVYLQMNSLKPEDTAVYYCNADYYWFFDFFDYDYWGQGTQVTVSS | low polyreactivity
QVQLVESGGGLVQAGGSLRLSCAASGITFNVNAMGWYRQAPGKERELVARITTSGGSTSYADSVKGRFTISRDNAKNTVYLQMNSLKPEYTAVYYCAADRARYYSEYDYWGQGTQVTVSS | low polyreactivity
QVQLVESGGGLVQAGGSLRLSCAASGSIFSGNAMGWYRQAPGKERELVAAISRSGGSTYYADSVKGRFTISRDNAKNTVYLQMNSLKPEDTAVYYCAAYRTHGPPRAIRFDYWGQGTQVTVSS | high polyreactivity
QVQLVESGGGLVQAGGSLRLSCAASGFTFTSYAMGWYRQAPGKERELVAAITVTGGRTYYADSVKGRFTISRDNAKNTVYLQMNSLKPEDTAVYYCATVFSLSSPYWKHYYWGQGTQVTVSS | high polyreactivity
QVQLVESGGGLVQAGGSLRLSCAASGRIFVHNAMGWYSQARGKERELVAAINSGGSTNYADSVKGRFTISRDNANKTVYLQMNSLKPEDTAVYYCAAYWYPYPDAFEYYNYGYWGQGTQVTVSS | high polyreactivity
QVQLVESGGGLVQAGGSLRLSCAASGSILQPNAMGWYRQAPGKERELVASITFSAGRTYYADSVKVRFTISRDNAKNTVYLQMNCLKPEDTAVYYCKAASDYRSSDYDYWGQGTQVTVSS | low polyreactivity
QVQLVESGGGLVQAGGSLRLSCAASGSILPGNTMGWYRQAPGKERELVASISNTGGNTYYADSVKGRFTISRDNAKNTVYLQMNSLKPEDTAVYYCAARFSLWFPTVYWEGILDYWGQGTQVTVSS | low polyreactivity
QVQLVESGGGLVQAGGSLRLSCAASGRIFSWYTMGWYRQAPGKERELVAGITWSGGSTYYADSVKGRFTISRDNAKNTVYLQMNSLKPEDTAVYYCAAGGVSFGYYKYYYWGQGTQVTVSS | high polyreactivity
